The values below come from US20150017651A1 (University of Texas, published 2015).

In this assay the target is T1, flag-tagged Gli1S84A (human, UniProt P08151 1-1106).
T1 construct: also called flag-Gli1S84A; not shown: flag tag from vector p3flag-CMV10
T1 sequence (looked up): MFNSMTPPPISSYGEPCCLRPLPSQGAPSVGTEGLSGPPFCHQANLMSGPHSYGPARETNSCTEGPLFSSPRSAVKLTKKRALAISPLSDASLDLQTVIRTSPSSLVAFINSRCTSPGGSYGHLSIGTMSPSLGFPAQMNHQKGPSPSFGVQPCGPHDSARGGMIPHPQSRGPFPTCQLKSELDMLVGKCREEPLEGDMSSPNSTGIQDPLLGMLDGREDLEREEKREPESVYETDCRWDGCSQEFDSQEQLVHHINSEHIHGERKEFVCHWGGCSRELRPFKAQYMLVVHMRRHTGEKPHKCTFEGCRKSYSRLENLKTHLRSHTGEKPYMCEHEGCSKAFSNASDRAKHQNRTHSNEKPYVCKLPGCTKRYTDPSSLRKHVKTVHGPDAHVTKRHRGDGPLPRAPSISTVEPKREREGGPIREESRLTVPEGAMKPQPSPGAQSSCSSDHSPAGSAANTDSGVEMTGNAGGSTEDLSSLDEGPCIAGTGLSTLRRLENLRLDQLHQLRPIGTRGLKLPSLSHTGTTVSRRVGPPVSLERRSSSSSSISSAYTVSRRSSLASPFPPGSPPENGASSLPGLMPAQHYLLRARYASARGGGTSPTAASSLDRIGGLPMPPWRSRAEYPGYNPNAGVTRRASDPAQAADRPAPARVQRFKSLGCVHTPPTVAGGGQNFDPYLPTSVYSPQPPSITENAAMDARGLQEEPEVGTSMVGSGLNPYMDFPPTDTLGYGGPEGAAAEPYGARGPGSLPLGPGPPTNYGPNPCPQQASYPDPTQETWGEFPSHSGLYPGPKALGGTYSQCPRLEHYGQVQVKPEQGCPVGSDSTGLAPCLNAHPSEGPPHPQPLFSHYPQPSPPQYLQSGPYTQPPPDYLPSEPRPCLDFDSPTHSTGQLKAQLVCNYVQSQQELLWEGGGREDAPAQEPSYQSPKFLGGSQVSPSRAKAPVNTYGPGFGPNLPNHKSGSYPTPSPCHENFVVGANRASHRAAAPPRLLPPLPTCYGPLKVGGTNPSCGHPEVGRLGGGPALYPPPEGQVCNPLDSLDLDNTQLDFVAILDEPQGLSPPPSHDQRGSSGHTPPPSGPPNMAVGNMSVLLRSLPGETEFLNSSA
Description: IP-Western, flag-tagged Gli1S84A transfected into BE3 cells. How it is done: FIGS. 13A-13K. related to FIG. 5. […] FIG. 13A. Luciferase assay of Gli reporter in the stable clones treated by TNFα alone (5 ng/mL) or TNFα plus rapamycin (100 nM). Error bars represent SD (n=3). FIG. 13B. Gli1 immunofluorescence staining in several BE3 stable clones with TNFα treatment. Scale bar=100 μm for original picture and 25 μm for inset. FIG. 13C. The regulation of p-Gli1 by TNFα alone or together with rapamycin (10, 50, and 100 nM) in the BE3 stable clone. FIG. 13D. MTT assay of the various Gli1 stable clones. All cells were counted, and then 3,000 cells were seeded in each well of a 96-well plate. Error bars represent SD (n=3). FIG. 13E. Soft-agar assay of the various Gli1 stable clones. All cells were counted, and then 1,000 cells were mixed with agarose for each well of a 24-well plate. Left, representative microscopic images. Right, quantitation of colony formation. Error bars represent SD (n=3). FIG. 13F. Invasion assay of the various Gli1 stable clones. All cells were counted, and then 1,000 cells were seeded on matrigel in transwells. Left, representative microscopic images from the bottom side of transwell membranes. Right, quantitation of invasive cells. Error bars represent SD (n=3). FIGS. 13G-13I. The assays of MTT (G), soft agar (H), and invasion (I) using the BE3 stable clones treated with TNFα.

B1: SuFu (other, human, UniProt Q9UMX1 1-484, looked up)
chain: MAELRPSGAPGPTAPPAPGPTAPPAFASLFPPGLHAIYGECRRLYPDQPNPLQVTAIVKYWLGGPDPLDYVSMYRNVGSPSANIPEHWHYISFGLSDLYGDNRVHEFTGTDGPSGFGFELTFRLKRETGESAPPTWPAELMQGLARYVFQSENTFCSGDHVSWHSPLDNSESRIQHMLLTEDPQMQPVQTPFGVVTFLQIVGVCTEELHSAQQWNGQGILELLRTVPIAGGPWLITDMRRGETIFEIDPHLQERVDKGIETDGSNLSGVSAKCAWDDLSRPPEDDEDSRSICIGTQPRRLSGKDTEQIRETLRRGLEINSKPVLPPINPQRQNGLAHDRAPSRKDSLESDSSTAIIPHELIRTRQLESVHLKFNQESGALIPLCLRGRLLHGRHFTYKSITGDMAITFVSTGVEGAFATEEHPYAAHGPWLQILLTEEFVEKMLEDLEDLTSPEEFKLPKEYSWPEKKLKVSILPDVVFDSPLH
notes: also called suppressor of fused
B1: the binding result was “binds”.
